B1: FLAG-, HA-tagged wild-type Bag-1L [human] / androgen receptor, endogenous in LNCaP cells [human (endogenous in LNCaP)] (parent complex)
chain 1: MAQRGGARRPRGDRERLGSRLRALRPGREPRQSEPPAQRGPPPSGRPPARSTASGHDRPTRGAAAGARRPRMKKKTRRRSTRSEELTRSEELTLSEEATWSEEATQSEEATQGEEMNRSQEVTRDEESTRSEEVTREEMAAAGLTVTVTHSNEKHDLHVTSQQGSSEPVVQDLAQVVEEVIGVPQSFQKLIFKGKSLKEMETPLSALGIQDGCRVMLIGKKNSPQEEVELKKLKHLEKSVEKIADQLEELNKELTGIQQGFLPKDLQAEALCKLDRRVKATIEQFMKILEEIDTLILPENFKDSRLKRKGLVKKVQAFLAECDTVEQNICQETERLQSTNFALAE
chain 2: MEVQLGLGRVYPRPPSKTYRGAFQNLFQSVREVIQNPGPRHPEAASAAPPGASLLLLQQQQQQQQQQQQQQQQQQQQQQQETSPRQQQQQQGEDGSPQAHRRGPTGYLVLDEEQQPSQPQSALECHPERGCVPEPGAAVAASKGLPQQLPAPPDEDDSAAPSTLSLLGPTFPGLSSCSADLKDILSEASTMQLLQQQQQEAVSEGSSSGRAREASGAPTSSKDNYLGGTSTISDNAKELCKAVSVSMGLGVEALEHLSPGEQLRGDCMYAPLLGVPPAVRPTPCAPLAECKGSLLDDSAGKSTEDTAEYSPFKGGYTKGLEGESLGCSGSAAAGSSGTLELPSTLSLYKSGALDEAAAYQSRDYYNFPLALAGPPPPPPPPHPHARIKLENPLDYGSAWAAAAAQCRYGDLASLHGAGAAGPGSGSPSAAASSSWHTLFTAEEGQLYGPCGGGGGGGGGGGGGGGGGGGGGGGEAGAVAPYGYTRPPQGLAGQESDFTAPDVWYPGGMVSRVPYPSPTCVKSEMGPWMDSYSGPYGDMRLETARDHVLPIDYYFPPQKTCLICGDEASGCHYGALTCGSCKVFFKRAAEGKQKYLCASRNDCTIDKFRRKNCPSCRLRKCYEAGMTLGARKLKKLGNLKLQEEGEASSTTSPTEETTQKLTVSHIEGYECQPIFLNVLEAIEPGVVCAGHDNNQPDSFAALLSSLNELGERQLVHVVKWAKALPGFRNLHVDDQMAVIQYSWMGLMVFAMGWRSFTNVNSRMLYFAPDLVFNEYRMHKSRMYSQCVRMRHLSQEFGWLQITPQEFLCMKALLLFSIIPVDGLKNQKFFDELRMNYIKELDRIIACKRKNPTSCSRRFYQLTKLLDSVQPIARELHQFTFDLLIKSHMVSVDFPEMMAEIISVQVPKILSGKVKPIYFHTQ

Variants of: B1
Test: SILAC RIME; LNCaP cells stably expressing FLAG-HA-tagged wild-type or CMut Bag-1L; parent: 21; read off a plot

Variant	response
chain 1 K231A, chain 1 K232A, chain 1 K279A	~19 log2 intensity

Reference: paper PMC5629025 (2017)
